Laboratory results published in paper PMC4141501.
Like-named read-outs stand apart in the source and are kept apart here.

Key:
[1] = molecular target: human EWI2 wild-type with palmitate-free cytoplasmic cysteines (after hydroxylamine or 2BP) (human) (UniProt Q969P0); assay: cross-linking
[2] = molecular target: human EWI2 wild-type with palmitate-free cytoplasmic cysteines (after hydroxylamine or 2BP) (human) (UniProt Q969P0); assay: cross-linking; remark: listed apart in the source

“human EWI2 wild-type with palmitate-free cytoplasmic cysteines (after hydroxylamine or 2BP) (from UniProt Q969P0 28-613) (natural protein)” showed a percent of EWI2 molecules dimerized [1] of 11%, a stoichiometry N [1] of 2 and a percent of EWI2 molecules dimerized [2] of 78%. The stoichiometry N [2] was 2.
